The target in the assay is mammalian cell-expressed human COMP (Cartilage Oligomeric Matrix Protein) (human) (UniProt P49747).
mammalian cell-expressed human COMP (Cartilage Oligomeric Matrix Protein) (human), sequence (P49747 21-757): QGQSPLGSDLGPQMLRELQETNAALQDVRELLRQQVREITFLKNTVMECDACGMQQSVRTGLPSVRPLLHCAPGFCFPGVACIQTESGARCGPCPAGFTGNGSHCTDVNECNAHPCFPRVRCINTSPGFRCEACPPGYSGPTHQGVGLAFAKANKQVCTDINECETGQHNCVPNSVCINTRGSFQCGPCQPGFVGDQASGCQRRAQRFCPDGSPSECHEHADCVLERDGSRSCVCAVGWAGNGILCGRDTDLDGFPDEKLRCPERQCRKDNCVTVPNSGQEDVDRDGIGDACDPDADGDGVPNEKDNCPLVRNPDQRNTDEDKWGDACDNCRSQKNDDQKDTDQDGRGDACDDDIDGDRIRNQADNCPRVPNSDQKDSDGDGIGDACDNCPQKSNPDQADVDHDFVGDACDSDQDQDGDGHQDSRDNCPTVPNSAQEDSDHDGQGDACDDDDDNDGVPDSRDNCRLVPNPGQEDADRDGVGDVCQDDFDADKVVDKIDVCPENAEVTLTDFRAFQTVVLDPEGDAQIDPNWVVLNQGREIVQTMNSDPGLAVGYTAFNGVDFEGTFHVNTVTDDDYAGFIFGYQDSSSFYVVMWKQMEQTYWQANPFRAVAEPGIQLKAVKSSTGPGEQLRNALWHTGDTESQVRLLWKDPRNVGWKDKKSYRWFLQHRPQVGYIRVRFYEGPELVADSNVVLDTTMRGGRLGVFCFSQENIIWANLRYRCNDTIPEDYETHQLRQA

ADAMTS4 variant β3-β4; β9-β10 (both loops replaced with those of ADAMTS13), sequence (O75173 52-837, change not shown): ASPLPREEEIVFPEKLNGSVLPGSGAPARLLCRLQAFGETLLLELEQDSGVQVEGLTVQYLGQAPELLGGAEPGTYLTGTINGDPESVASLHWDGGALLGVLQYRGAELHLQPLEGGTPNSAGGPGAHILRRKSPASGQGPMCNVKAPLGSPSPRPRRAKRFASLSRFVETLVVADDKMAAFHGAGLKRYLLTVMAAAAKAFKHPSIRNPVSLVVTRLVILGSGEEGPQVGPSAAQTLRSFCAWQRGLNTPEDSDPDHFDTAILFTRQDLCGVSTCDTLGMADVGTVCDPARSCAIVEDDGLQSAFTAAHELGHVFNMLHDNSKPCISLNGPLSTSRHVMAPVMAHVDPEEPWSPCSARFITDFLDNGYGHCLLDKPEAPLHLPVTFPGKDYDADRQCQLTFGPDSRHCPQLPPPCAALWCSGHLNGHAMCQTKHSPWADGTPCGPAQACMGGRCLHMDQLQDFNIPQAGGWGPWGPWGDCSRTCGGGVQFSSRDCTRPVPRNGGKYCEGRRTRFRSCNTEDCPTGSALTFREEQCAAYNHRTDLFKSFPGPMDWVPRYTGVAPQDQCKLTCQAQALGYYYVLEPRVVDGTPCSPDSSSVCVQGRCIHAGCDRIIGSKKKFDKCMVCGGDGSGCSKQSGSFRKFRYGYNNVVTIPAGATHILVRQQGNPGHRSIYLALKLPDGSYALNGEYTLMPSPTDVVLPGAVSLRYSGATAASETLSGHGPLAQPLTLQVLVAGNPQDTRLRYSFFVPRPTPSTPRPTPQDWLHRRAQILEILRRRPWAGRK
ADAMTS4 variant β1-β2 (residues 693–698 swapped with those of ADAMTS13), sequence (O75173 52-837, change not shown): as above

Take “ADAMTS4 variant β1-β2 (residues 693–698 swapped with those of ADAMTS13) (from UniProt O75173 52-837) (enzyme)”: the reduction in COMPase activity at the S77-V78 bond compared to WT ADAMTS4 (hCOMP 520 nM, enzyme 12 nM, 2 h, 37 °C; densitometry of anti-QQS77 immunoblot, WT set as 100 %) was determined as 25 % reduction. Substance “ADAMTS4 variant β3-β4; β9-β10 (both loops replaced with those of ADAMTS13) (from UniProt O75173 52-837) (enzyme)” registered a reduction in COMPase activity at the S77-V78 bond compared to WT ADAMTS4 (hCOMP 520 nM, enzyme 12 nM, 2 h, 37 °C; densitometry of anti-QQS77 immunoblot, WT set as 100 %) of 20 % reduction.

The record behind these values is PMC12342048.
